Results on 1 substance are retold here after IntAct's records for PubMed 24525236.

For this assay, the target named is flt3_human FLT3 (UniProt P36888).
Sequence of flt3_human FLT3 (P36888 whole entry): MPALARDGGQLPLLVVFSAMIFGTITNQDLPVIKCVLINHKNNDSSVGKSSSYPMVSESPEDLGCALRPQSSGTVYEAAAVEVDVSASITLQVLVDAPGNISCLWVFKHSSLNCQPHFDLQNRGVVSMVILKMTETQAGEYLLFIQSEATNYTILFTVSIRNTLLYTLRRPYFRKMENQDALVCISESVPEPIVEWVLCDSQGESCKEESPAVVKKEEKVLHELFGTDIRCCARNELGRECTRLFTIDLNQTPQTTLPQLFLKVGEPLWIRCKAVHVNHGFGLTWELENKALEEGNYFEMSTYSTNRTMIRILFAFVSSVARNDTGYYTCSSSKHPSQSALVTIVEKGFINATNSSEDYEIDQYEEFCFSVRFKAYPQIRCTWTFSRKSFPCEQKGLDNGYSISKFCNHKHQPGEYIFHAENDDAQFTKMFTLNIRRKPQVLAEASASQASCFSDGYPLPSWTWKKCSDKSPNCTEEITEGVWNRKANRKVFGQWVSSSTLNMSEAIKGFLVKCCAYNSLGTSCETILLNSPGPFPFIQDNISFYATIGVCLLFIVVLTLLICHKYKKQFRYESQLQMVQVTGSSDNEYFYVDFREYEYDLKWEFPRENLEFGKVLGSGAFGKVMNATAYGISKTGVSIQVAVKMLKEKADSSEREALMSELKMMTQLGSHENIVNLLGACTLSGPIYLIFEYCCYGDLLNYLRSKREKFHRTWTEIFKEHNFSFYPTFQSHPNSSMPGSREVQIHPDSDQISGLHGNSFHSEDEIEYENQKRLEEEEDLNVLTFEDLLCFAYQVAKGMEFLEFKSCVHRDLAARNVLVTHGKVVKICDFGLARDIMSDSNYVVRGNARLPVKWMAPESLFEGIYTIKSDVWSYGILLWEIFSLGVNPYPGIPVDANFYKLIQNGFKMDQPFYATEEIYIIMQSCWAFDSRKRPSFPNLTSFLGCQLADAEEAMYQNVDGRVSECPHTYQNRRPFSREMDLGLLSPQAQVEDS

Consider “Tyrosine-protein kinase SYK (Homo sapiens) (from UniProt P43405) R195G;R197L”, for which the “effect of a mutation on the interaction” value is on record as “decreasing interaction”.
